Where two headings read alike, the source gives them in different places. *1 amine or outer side, *2 acyl side, *3 side chain or, on linkers, in order; H or OH if unused. Where no end group is shown, it is not given here. Side-chain parts run from the residue outwards. [ ]: non-standard residue; d: D form. The star is where a group is joined. C18 diacid = O=C(O)CCCCCCCCCCCCCCCCC(=O)*; γGlu = O=C(O)[C@H](CCC(=O)[*:2])N[*:1]; εLys = N[C@@H](CCCCN[*:1])C(=O)[*:2]; Aib = CC(C)(N)C(=O)O
T1: hGIPR (Homo sapiens, UniProt P48546)
T1 construct: expressed in transfected cells; host or cells: CHO CRE-luciferase reporter cells
T1 sequence (P48546 22-466): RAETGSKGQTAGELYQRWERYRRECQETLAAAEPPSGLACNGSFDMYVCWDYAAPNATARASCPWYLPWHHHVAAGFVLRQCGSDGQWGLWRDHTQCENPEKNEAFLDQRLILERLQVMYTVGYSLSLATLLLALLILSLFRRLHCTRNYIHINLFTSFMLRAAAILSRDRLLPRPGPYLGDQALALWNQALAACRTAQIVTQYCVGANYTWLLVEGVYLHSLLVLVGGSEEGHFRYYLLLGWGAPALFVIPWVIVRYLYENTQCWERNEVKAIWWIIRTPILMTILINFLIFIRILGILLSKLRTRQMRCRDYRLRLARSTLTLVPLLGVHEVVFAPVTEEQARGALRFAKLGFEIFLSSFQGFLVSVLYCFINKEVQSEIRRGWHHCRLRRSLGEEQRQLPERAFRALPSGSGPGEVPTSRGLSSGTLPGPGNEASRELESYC

T2: hNPY2R (Homo sapiens, UniProt P49146)
T2 construct: expressed in transfected cells; host or cells: HEK-293 CRE-luciferase reporter cells
T2 sequence (P49146 1-381): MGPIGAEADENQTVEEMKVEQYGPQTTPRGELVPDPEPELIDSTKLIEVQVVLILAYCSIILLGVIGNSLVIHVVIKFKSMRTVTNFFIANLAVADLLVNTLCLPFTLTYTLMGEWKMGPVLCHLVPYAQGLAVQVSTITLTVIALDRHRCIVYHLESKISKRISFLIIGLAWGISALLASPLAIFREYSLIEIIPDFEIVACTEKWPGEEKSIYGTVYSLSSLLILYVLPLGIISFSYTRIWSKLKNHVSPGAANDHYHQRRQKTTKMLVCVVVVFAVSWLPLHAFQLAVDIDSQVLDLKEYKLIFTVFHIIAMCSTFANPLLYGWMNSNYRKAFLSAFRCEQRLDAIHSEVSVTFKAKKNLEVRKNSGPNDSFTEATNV

T3: human GIP receptor (human, UniProt P48546 22-466)
T3 sequence (looked up): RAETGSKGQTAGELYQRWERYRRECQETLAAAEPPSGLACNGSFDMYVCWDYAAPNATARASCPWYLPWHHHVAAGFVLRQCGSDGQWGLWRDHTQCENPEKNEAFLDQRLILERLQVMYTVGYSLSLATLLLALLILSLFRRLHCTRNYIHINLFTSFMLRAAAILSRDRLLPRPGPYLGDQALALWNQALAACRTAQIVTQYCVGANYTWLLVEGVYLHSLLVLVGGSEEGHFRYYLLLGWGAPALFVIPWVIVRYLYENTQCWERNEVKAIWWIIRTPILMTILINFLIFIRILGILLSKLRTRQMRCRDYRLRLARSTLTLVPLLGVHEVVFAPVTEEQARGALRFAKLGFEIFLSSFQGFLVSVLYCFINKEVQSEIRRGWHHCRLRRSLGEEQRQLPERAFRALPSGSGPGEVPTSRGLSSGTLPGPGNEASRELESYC

T4: human neuropeptide Y2 receptor (human, UniProt P49146 1-381)
T4 sequence (looked up): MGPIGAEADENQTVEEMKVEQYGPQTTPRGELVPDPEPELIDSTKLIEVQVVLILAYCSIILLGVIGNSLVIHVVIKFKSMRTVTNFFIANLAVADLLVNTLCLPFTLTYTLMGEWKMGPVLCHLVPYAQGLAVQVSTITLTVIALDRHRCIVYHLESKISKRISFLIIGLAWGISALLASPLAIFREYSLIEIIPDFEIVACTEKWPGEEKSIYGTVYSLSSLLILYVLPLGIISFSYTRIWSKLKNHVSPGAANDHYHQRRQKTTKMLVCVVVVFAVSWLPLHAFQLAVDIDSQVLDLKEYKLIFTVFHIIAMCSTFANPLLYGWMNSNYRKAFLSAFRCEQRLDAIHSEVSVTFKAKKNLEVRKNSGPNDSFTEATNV


Columns and labels:
[1] = molecular target: T5, hGLP1R (Homo sapiens, UniProt P43220); assay: hGLP1R CreLuc assay in 0.5% and 100% plasma (HEK-293 CRE-luciferase reporter cells); format: cell-based; details: HEK-293 reporter cells
T5 construct: expressed in transfected cells; host or cells: HEK-293 CRE-luciferase reporter cells

[2] = molecular target: T1, hGIPR; assay: hGIPR CreLuc assay in 0.5% and 100% plasma (CHO CRE-luciferase reporter cells); format: cell-based; details: 0.5% human plasma, read-out: hGIPR 0.5% hP
[3] = molecular target: T2, hNPY2R; assay: hNPY2R CreLuc assay in 0.5% and 100% plasma (HEK-293 CRE-luciferase reporter cells); format: cell-based; details: 0.5% human plasma, HEK-293 reporter cells, read-out: hNPY2R 0.5% hP
[4] = Solubility in 0.1 M phosphate buffer at pH 7; format: physicochemical; details: 0.1 M phosphate buffer at pH 7, 10 mg/mL final peptide concentration, shaking 2 hours at room temperature, peptides as TFA-salts; measured sample pH 6.5-7.0
[5] = Mouse PK after intravenous application; format: in vivo; details: plasma, male NMRI mice, intravenous 30-60 nmol/kg, non-compartmental analysis
Outline: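 Male NMRI mice (30–40 g) dosed 30-60 nmol/kg by tail vein in 50 mM phosphate buffer pH 7.4/3.5% mannitol. Saphenous EDTA blood sampled from conscious animals up to 56 h; plasma peptide quantified by LC-MS. Parameters from non-compartmental analysis of individual profiles.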

[6] = tested on: Normal NMRI Mice; assay: Effect on acute food intake in normal NMRI mice; format: in vivo; details: male NMRI mice, single subcutaneous dose 100 nmol/kg, 24 hours food intake normalized to vehicle group
Outline: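 Male NMRI mice (n=8, ≥6 weeks), food locked 8 h before dark phase, given a single subcutaneous dose of peptide 1 h before lights-off. Food intake logged hourly over 24 h by automated HM2 monitoring; vehicle 50 mM phosphate pH 7.4 with 3.5% mannitol.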

[7] = molecular target: T3, human GIP receptor; assay: cell-based or functional assay
[8] = molecular target: T4, human neuropeptide Y2 receptor; assay: cell-based or functional assay
[9] = molecular target: human GLP-1 receptor (human, UniProt P43220 24-463); assay: cell-based or functional assay

T5 sequence (P43220 24-463): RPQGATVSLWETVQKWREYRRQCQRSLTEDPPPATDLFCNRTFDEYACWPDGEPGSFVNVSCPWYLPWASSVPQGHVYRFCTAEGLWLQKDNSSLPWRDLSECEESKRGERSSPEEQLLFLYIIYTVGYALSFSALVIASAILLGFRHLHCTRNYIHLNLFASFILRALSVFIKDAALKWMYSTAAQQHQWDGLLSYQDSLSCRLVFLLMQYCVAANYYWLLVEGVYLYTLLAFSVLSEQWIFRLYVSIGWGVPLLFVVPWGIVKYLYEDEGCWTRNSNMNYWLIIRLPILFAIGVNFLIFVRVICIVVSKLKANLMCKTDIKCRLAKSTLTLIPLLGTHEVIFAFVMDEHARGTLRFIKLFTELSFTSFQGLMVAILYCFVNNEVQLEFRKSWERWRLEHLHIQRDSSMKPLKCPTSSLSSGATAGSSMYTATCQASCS

Molecule	EC50, CreLuc luciferase reporter assay, hGIPR 0.5% hP [7]	EC50, CreLuc luciferase reporter assay, hNPY2R 0.5% hP [8]	EC50, CreLuc luciferase reporter assay, hNPY2R 100% hP [8]	EC50, CreLuc luciferase reporter assay, hGLP1R 0.5% hP [9]	EC50, CreLuc luciferase reporter assay, hGIPR 100% hP [7]	also measured
CC[C@H](C)[C@H](NC(=O)[C@H](CC(C)C)NC(=O)[C@H](Cc1c[nH]cn1)NC(=O)[C@H](CCCNC(=N)N)NC(=O)[C@@H](NC(=O)[C@H](Cc1ccccc1)NC(=O)[C@H](C)NC(=O)C(C)(C)NC(=O)[C@H](CCC(N)=O)NC(=O)[C@H](C)NC(=O)[C@H](CCC(N)=O)NC(=O)[C@H](CCCCN)NC(=O)[C@H](CCC(=O)O)NC(=O)[C@H](CC(C)C)NC(=O)C(C)(C)NC(=O)[C@@H](NC(=O)[C@H](CO)NC(=O)[C@H](Cc1ccc(O)cc1)NC(=O)[C@H](CC(=O)O)NC(=O)[C@H](CO)NC(=O)[C@@H](NC(=O)[C@H](Cc1ccccc1)NC(=O)[C@@H](NC(=O)CNC(=O)[C@H](CCC(=O)O)NC(=O)C(C)(C)NC(=O)[C@@H](N)Cc1ccc(O)cc1)[C@@H](C)O)[C@@H](C)O)[C@@H](C)CC)C(C)C)C(=O)N[C@@H](CC(N)=O)C(=O)N[C@@H](CCCCNC(=O)[C@@H](N)CCCCNC(=O)CC[C@H](NC(=O)CC[C@H](NC(=O)CC[C@H](NC(=O)CC[C@H](NC(=O)CC[C@H](NC(=O)CC[C@H](NC(=O)CCCCCCCCCCCCCCCCC(=O)O)C(=O)O)C(=O)O)C(=O)O)C(=O)O)C(=O)O)C(=O)O)C(=O)NC(C)(C)C(=O)N[C@H](C(=O)N[C@@H](CCCNC(=N)N)C(=O)N[C@@H](CCC(N)=O)C(=O)N[C@@H](CCCNC(=N)N)C(=O)N[C@@H](Cc1ccc(O)cc1)C(N)=O)[C@@H](C)O [Compound 92, Y-Aib-E-G-T-F-T-S-D-Y-S-I-Aib-L-E-K-Q-A-Q-Aib-A-F-V-R-H-L-I-N-K(1,3)-Aib-T-R-Q-R-Y-NH2.C18DA-gGlu-gGlu-gGlu-gGlu-gGlu-gGlu-eLys(1,2)]						EC50 ([1]; 0.5% human plasma, read-out: hGLP1R 0.5% hP): 0.4 nM; EC50 ([1]; 100% human plasma, read-out: hGLP1R 100% hP): 2 nM; EC50 [2]: 0.2 nM; EC50 [3]: 9.9 nM; solubility at 2 h [4]: 6700 µg/mL; MRT [5]: 7.5 h; Acute Food Intake 24 hours 100 nmol/kg [% CTL] [6]: 58 % CTL
YXEGTFTSDYSIXLERQAQXAFVRHLINKXTRQRY (Aib at positions 2, 13, 20 and 30; Lys 29 epsilon-amino group carries C20DA-gGlu-gGlu-gGlu-gGlu-gGlu-gGlu-eLys; C-terminal amide) [Compound 171]	0.4 nM	9.9 nM	95.3 nM			
YXEGTFTSDYSIXLDKQAQXAFVRHLLNKXTRQRY (Aib at positions 2, 13, 20 and 30; Lys 29 epsilon-amino group carries C18DA-gGlu-gGlu-gGlu-gGlu-gGlu-gGlu-eLys; C-terminal amide) [Compound 173]	0.7 nM	7.3 nM	55.5 nM	0.2 nM	20.1 nM	
YXEGTFTSDYSIXLEKQAQXAFVRHLINKXTRQRY (Aib at positions 2, 13, 20 and 30; Lys 29 epsilon-amino group carries C20DA-gGlu-gGlu-gGlu-gGlu-gGlu; C-terminal amide) [Compound 176]			457 nM			
YXEGTFTSDYSIXLEKQAQXAFVRHLINKWTRQRY (Aib at positions 2, 13 and 20; Lys 29 epsilon-amino group carries C18DA-gGlu-gGlu-gGlu-gGlu-gGlu-gGlu-eLys; C-terminal amide) [Compound 172]	1.7 nM	52.7 nM	136 nM		19.8 nM	
Y[Aib]EGTFTSDYSI[Aib]LEKQAQ[Aib]AFVRHLINK([γGlu-εLys-γGlu-γGlu-γGlu-γGlu-γGlu-C18 diacid])[Aib]TRQRY-NH2 (also: TFA salt) [Compound 174]				1 nM		

Reference: US20250382344A1, “Soluble GLP1/GIP/NPY2 Receptor Triple Agonists” (Boehringer Ingelheim International GmH, priority 2024, published 2025)
